Reference: PMC2853374 (2010)

T1: OmpR (Escherichia coli, UniProt P0AA16)
T1 chain: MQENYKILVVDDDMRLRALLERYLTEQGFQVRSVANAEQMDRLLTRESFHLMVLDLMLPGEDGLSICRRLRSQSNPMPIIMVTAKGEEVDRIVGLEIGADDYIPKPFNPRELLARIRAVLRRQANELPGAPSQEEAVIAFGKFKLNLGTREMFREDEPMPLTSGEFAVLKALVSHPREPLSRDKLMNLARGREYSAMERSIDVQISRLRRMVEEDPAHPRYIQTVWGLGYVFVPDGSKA


Assays:
[1] = target: OmpR~P (Escherichia coli) (UniProt P0AA16); assay: FRET; conditions: cited from earlier work
OmpR (Escherichia coli) = OmpR (Escherichia coli) (UniProt P0AA16); assay: FRET; conditions: cited from earlier work
OmpR = target: T1, OmpR; assay: fluorescence anisotropy

Sequence of EnvZ-GFP (P0AEJ4 whole entry): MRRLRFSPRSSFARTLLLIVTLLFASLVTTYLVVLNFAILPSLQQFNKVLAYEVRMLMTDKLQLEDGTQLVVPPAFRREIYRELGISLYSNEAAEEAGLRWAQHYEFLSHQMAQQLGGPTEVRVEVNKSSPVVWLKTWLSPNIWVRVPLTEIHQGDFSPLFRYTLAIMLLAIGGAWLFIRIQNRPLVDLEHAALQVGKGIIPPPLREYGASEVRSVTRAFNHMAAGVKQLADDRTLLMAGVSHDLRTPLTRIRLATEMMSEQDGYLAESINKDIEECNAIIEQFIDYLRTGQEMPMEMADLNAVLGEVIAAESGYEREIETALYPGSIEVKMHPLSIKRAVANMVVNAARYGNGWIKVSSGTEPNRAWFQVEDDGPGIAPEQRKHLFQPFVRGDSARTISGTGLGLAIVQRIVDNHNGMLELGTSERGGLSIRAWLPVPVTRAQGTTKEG

Row | Molecule | Kd [1] [nM] | Kd (OmpR (Escherichia coli)) [nM] | Kd (OmpR) [nM]
1 | EnvZ-GFP (from UniProt P0AEJ4) | 1600 | 500 | –
2 | EnvZc cytoplasmic domain (protein) FNHMAAGVKQLADDRTLLMAGVSHDLRTPLTRIRLATEMMSEQDGYLAESINKDIEECNAIIEQFIDYLRTGQ | – | – | 425
3 | EnvZc cytoplasmic domain (protein, ompC DNA (C1-C2-C3)) FNHMAAGVKQLADDRTLLMAGVSHDLRTPLTRIRLATEMMSEQDGYLAESINKDIEECNAIIEQFIDYLRTGQ | – | – | 385
